From PMC7797054, “Structural basis for inhibition of the type I-F CRISPR–Cas surveillance complex by AcrIF4, AcrIF7 and AcrIF14” (Nucleic Acids Research, 2020) come the findings set out here.

Data set [1] deals with type I-F CRISPR-Cas surveillance complex (the Csy complex) from Pseudomonas aeruginosa PA14 (Pseudomonas aeruginosa) (UniProt Q02ML9). The data set is described as follows: cryo-EM structure; Csy incubated with AcrIF protein at molar ratio 1:10 for 1 h on ice, SEC in 20 mM HEPES pH 7.5, 100 mM KCl, 5% glycerol, 1 mM TCEP; 0.5 mg/ml on UltrAuFoil grids, Titan Krios 300 kV.
Chain of type I-F CRISPR-Cas surveillance complex (the Csy complex) from Pseudomonas aeruginosa PA14 (Pseudomonas aeruginosa) (Q02ML9 whole entry, chain 1 of 3): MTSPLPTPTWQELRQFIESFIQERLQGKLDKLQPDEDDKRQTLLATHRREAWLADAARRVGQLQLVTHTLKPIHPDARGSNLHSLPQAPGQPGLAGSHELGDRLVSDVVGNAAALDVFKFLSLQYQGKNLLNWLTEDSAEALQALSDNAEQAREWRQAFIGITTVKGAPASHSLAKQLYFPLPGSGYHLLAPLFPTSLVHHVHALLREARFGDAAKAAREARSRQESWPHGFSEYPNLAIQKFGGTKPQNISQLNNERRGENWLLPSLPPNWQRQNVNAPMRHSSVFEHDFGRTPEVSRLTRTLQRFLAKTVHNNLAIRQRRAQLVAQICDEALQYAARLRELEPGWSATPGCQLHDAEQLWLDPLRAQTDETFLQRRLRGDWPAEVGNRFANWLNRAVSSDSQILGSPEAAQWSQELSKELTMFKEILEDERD
Chain of type I-F CRISPR-Cas surveillance complex (the Csy complex) from Pseudomonas aeruginosa PA14 (Pseudomonas aeruginosa) (Q02MM0 whole entry, chain 2 of 3, further chain): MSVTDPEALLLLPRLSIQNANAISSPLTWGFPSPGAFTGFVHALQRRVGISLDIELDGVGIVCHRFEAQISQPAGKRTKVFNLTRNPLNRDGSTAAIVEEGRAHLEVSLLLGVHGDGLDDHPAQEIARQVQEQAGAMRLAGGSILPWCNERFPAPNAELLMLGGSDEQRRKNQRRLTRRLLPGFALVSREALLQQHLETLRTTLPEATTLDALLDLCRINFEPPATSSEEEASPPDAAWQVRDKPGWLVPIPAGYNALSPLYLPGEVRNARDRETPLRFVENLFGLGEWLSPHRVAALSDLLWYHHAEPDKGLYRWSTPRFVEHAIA
Chain of type I-F CRISPR-Cas surveillance complex (the Csy complex) from Pseudomonas aeruginosa PA14 (Pseudomonas aeruginosa) (Q02MM2 whole entry, chain 4 of 3, further chain): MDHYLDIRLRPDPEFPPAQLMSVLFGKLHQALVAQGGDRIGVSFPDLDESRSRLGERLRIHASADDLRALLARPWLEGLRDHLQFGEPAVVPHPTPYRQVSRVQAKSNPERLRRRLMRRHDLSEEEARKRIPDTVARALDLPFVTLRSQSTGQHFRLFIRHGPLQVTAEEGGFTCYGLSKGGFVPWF
Data set [2] deals with the molecule itself. Described as above.

Broadly, the stoichiometry N is the number of molecules, sites or subunits per partner or assembly. Regarding AcrIF14 (natural protein), the stoichiometry N in data set [1] was determined as 2.

B1: Cas7f subunit of the Csy complex (natural protein, Pseudomonas aeruginosa)
chain: MSKPILSTASVLAFERKLDPSDALMSAGAWAQRDASQEWPAVTVREKSVRGTISNRLKTKDRDPAKLDASIQSPNLQTVDVANLPSDADTLKVRFTLRVLGGAGTPSACNDAAYRDKLLQTVATYVNDQGFAELARRYAHNLANARFLWRNRVGAEAVEVRINHIRQGEVARAWRFDALAIGLRDFKADAELDALAELIASGLSGSGHVLLEVVAFARIGDGQEVFPSQELILDKGDKKGQKSKTLYSVRDAAAIHSQKIGNALRTIDTWYPDEDGLGPIAVEPYGSVTSQGKAYRQPKQKLDFYTLLDNWVLRDEAPAVEQQHYVIANLIRGGVFGEAEEK
notes: Cas7f (Csy3) of Pseudomonas aeruginosa PA14; Stood in the assay as a subunit (six copies) of the whole Csy complex; It may carry the His tag of the complex (surmise); also called Cas7.1f-Cas7.6f; Cas7.4f; source: E. coli BL21 (DE3), co-expressed and purified as part of the Csy complex (HisTrap HP, HiTrap Q, Superdex 200)
Regarding B1, the “stoichiometry N” value in data set [2] stood at 6.
